We go through 29 molecules from patent US20250218531A1 (ABSCI, published 2025).

The labels stand for the following.
B1: Trastuzumab HCDR3 variant ARWGYDYYYAMDY (Fab, V domains shown)
VH: EVQLVESGGGLVQPGGSLRLSCAASGFNIKDTYIHWVRQAPGKGLEWVARIYPTNGYTRYADSVKGRFTISADTSKNTAYLQMNSLRAEDTAVYYCARWGYDYYYAMDYWGQGTLVTVSS
VL: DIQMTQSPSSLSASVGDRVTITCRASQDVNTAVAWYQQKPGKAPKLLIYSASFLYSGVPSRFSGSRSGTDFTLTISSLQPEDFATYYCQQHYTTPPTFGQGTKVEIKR
B2: Trastuzumab HCDR3 variant ARYGDGYYYYFAY (Fab, V domains shown)
VH: EVQLVESGGGLVQPGGSLRLSCAASGFNIKDTYIHWVRQAPGKGLEWVARIYPTNGYTRYADSVKGRFTISADTSKNTAYLQMNSLRAEDTAVYYCARYGDGYYYYFAYWGQGTLVTVSS
VL: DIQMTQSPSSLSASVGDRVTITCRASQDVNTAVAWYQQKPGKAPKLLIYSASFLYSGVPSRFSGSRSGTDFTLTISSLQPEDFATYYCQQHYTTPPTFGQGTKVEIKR
B3: Trastuzumab HCDR3 variant ARWGYYGNYYFDY (Fab, V domains shown)
VH: EVQLVESGGGLVQPGGSLRLSCAASGFNIKDTYIHWVRQAPGKGLEWVARIYPTNGYTRYADSVKGRFTISADTSKNTAYLQMNSLRAEDTAVYYCARWGYYGNYYFDYWGQGTLVTVSS
VL: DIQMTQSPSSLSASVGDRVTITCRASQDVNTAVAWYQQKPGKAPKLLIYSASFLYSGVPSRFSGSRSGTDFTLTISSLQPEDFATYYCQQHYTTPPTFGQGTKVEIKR
B4: Trastuzumab HCDR3 variant ARWGYSGWYVMDY (Fab, V domains shown)
VH: EVQLVESGGGLVQPGGSLRLSCAASGFNIKDTYIHWVRQAPGKGLEWVARIYPTNGYTRYADSVKGRFTISADTSKNTAYLQMNSLRAEDTAVYYCARWGYSGWYVMDYWGQGTLVTVSS
VL: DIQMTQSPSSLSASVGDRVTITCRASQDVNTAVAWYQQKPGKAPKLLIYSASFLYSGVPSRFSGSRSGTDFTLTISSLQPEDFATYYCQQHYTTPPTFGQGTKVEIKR
B5: Trastuzumab HCDR3 variant ARYGSRYYYYFDY (Fab, V domains shown)
VH: EVQLVESGGGLVQPGGSLRLSCAASGFNIKDTYIHWVRQAPGKGLEWVARIYPTNGYTRYADSVKGRFTISADTSKNTAYLQMNSLRAEDTAVYYCARYGSRYYYYFDYWGQGTLVTVSS
VL: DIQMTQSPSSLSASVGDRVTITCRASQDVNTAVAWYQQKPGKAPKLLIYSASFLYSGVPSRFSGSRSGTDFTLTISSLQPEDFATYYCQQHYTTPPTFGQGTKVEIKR
B6: Trastuzumab HCDR3 variant ARWYGGGYYYMDY (Fab, V domains shown)
VH: EVQLVESGGGLVQPGGSLRLSCAASGFNIKDTYIHWVRQAPGKGLEWVARIYPTNGYTRYADSVKGRFTISADTSKNTAYLQMNSLRAEDTAVYYCARWYGGGYYYMDYWGQGTLVTVSS
VL: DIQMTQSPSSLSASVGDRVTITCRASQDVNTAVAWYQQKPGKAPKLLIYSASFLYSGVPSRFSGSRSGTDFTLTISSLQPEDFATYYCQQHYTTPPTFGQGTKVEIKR
B7: Trastuzumab HCDR3 variant ARWYYYGRYYFDY (Fab, V domains shown)
VH: EVQLVESGGGLVQPGGSLRLSCAASGFNIKDTYIHWVRQAPGKGLEWVARIYPTNGYTRYADSVKGRFTISADTSKNTAYLQMNSLRAEDTAVYYCARWYYYGRYYFDYWGQGTLVTVSS
VL: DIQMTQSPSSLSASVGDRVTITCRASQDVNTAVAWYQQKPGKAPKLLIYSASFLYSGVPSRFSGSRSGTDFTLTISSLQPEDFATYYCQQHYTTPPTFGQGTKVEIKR
B8: Trastuzumab HCDR3 variant ARWYGYGGYYFDY (Fab, V domains shown)
VH: EVQLVESGGGLVQPGGSLRLSCAASGFNIKDTYIHWVRQAPGKGLEWVARIYPTNGYTRYADSVKGRFTISADTSKNTAYLQMNSLRAEDTAVYYCARWYGYGGYYFDYWGQGTLVTVSS
VL: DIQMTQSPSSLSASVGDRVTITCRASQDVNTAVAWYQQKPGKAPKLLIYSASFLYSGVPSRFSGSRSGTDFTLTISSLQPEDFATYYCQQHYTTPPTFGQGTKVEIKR
B9: Trastuzumab HCDR3 variant ARYFYDYYYYFDF (Fab, V domains shown)
VH: EVQLVESGGGLVQPGGSLRLSCAASGFNIKDTYIHWVRQAPGKGLEWVARIYPTNGYTRYADSVKGRFTISADTSKNTAYLQMNSLRAEDTAVYYCARYFYDYYYYFDFWGQGTLVTVSS
VL: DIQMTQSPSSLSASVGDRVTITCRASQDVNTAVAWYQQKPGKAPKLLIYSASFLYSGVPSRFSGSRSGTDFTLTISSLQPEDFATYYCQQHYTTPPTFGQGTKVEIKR
B10: Trastuzumab HCDR3 variant ARWPFYGPYNYDY (Fab, V domains shown)
VH: EVQLVESGGGLVQPGGSLRLSCAASGFNIKDTYIHWVRQAPGKGLEWVARIYPTNGYTRYADSVKGRFTISADTSKNTAYLQMNSLRAEDTAVYYCARWPFYGPYNYDYWGQGTLVTVSS
VL: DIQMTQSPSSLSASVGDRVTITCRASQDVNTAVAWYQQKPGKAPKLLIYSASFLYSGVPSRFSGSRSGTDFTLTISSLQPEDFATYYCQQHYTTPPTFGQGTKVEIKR
B11: Trastuzumab HCDR3 variant ARYDPYGFYHLDY (Fab, V domains shown)
VH: EVQLVESGGGLVQPGGSLRLSCAASGFNIKDTYIHWVRQAPGKGLEWVARIYPTNGYTRYADSVKGRFTISADTSKNTAYLQMNSLRAEDTAVYYCARYDPYGFYHLDYWGQGTLVTVSS
VL: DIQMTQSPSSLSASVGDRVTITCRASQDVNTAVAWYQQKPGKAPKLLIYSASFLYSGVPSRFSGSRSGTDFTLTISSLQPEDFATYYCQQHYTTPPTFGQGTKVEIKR
B12: Trastuzumab HCDR3 variant ARWPGYGSYYMDV (Fab, V domains shown)
VH: EVQLVESGGGLVQPGGSLRLSCAASGFNIKDTYIHWVRQAPGKGLEWVARIYPTNGYTRYADSVKGRFTISADTSKNTAYLQMNSLRAEDTAVYYCARWPGYGSYYMDVWGQGTLVTVSS
VL: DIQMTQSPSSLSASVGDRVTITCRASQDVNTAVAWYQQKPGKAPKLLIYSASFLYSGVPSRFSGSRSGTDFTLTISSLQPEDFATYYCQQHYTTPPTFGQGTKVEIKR
B13: Trastuzumab HCDR3 variant ARWGYGYSYYFDV (Fab, V domains shown)
VH: EVQLVESGGGLVQPGGSLRLSCAASGFNIKDTYIHWVRQAPGKGLEWVARIYPTNGYTRYADSVKGRFTISADTSKNTAYLQMNSLRAEDTAVYYCARWGYGYSYYFDVWGQGTLVTVSS
VL: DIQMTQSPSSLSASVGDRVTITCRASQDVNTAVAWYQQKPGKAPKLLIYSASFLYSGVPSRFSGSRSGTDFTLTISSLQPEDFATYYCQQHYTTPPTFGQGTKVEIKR
B14: Trastuzumab HCDR3 variant ARWGYDYYYYFDV (Fab, V domains shown)
VH: EVQLVESGGGLVQPGGSLRLSCAASGFNIKDTYIHWVRQAPGKGLEWVARIYPTNGYTRYADSVKGRFTISADTSKNTAYLQMNSLRAEDTAVYYCARWGYDYYYYFDVWGQGTLVTVSS
VL: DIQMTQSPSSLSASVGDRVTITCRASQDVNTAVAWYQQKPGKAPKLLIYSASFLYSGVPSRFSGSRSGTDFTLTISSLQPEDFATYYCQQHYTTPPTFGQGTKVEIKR
B15: Trastuzumab HCDR3 variant ARWGYGGYYYFDY (Fab, V domains shown)
VH: EVQLVESGGGLVQPGGSLRLSCAASGFNIKDTYIHWVRQAPGKGLEWVARIYPTNGYTRYADSVKGRFTISADTSKNTAYLQMNSLRAEDTAVYYCARWGYGGYYYFDYWGQGTLVTVSS
VL: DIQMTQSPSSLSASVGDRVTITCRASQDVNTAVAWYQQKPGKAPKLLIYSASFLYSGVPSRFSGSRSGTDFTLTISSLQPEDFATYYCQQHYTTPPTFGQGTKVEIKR
B16: Trastuzumab HCDR3 variant ARWLRALGYYMDY (Fab, V domains shown)
VH: EVQLVESGGGLVQPGGSLRLSCAASGFNIKDTYIHWVRQAPGKGLEWVARIYPTNGYTRYADSVKGRFTISADTSKNTAYLQMNSLRAEDTAVYYCARWLRALGYYMDYWGQGTLVTVSS
VL: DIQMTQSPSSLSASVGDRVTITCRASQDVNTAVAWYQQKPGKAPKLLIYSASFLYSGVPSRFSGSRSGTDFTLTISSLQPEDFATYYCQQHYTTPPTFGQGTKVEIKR
B17: Trastuzumab HCDR3 variant ARYGSGYYYYFDY (Fab, V domains shown)
VH: EVQLVESGGGLVQPGGSLRLSCAASGFNIKDTYIHWVRQAPGKGLEWVARIYPTNGYTRYADSVKGRFTISADTSKNTAYLQMNSLRAEDTAVYYCARYGSGYYYYFDYWGQGTLVTVSS
VL: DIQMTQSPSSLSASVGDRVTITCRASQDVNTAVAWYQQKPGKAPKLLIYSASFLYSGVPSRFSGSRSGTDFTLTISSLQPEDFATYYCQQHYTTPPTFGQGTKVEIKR
B18: Trastuzumab HCDR3 variant ARYGGGGRYYFDY (Fab, V domains shown)
VH: EVQLVESGGGLVQPGGSLRLSCAASGFNIKDTYIHWVRQAPGKGLEWVARIYPTNGYTRYADSVKGRFTISADTSKNTAYLQMNSLRAEDTAVYYCARYGGGGRYYFDYWGQGTLVTVSS
VL: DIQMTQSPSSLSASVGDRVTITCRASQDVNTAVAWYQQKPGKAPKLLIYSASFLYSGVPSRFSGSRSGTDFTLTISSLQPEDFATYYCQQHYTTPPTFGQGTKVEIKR
B19: Trastuzumab HCDR3 variant ARWLGEGYYNFDY (Fab, V domains shown)
VH: EVQLVESGGGLVQPGGSLRLSCAASGFNIKDTYIHWVRQAPGKGLEWVARIYPTNGYTRYADSVKGRFTISADTSKNTAYLQMNSLRAEDTAVYYCARWLGEGYYNFDYWGQGTLVTVSS
VL: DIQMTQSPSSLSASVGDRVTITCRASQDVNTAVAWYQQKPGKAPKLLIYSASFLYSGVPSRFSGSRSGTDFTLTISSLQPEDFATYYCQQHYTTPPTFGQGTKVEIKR
B20: Trastuzumab HCDR3 variant ARWYYYGGYYFDV (Fab, V domains shown)
VH: EVQLVESGGGLVQPGGSLRLSCAASGFNIKDTYIHWVRQAPGKGLEWVARIYPTNGYTRYADSVKGRFTISADTSKNTAYLQMNSLRAEDTAVYYCARWYYYGGYYFDVWGQGTLVTVSS
VL: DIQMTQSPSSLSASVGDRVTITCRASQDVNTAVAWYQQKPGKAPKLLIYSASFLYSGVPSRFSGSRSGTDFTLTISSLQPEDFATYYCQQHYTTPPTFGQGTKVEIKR
B21: Trastuzumab HCDR3 variant ARWYYYGGYYFDY (Fab, V domains shown)
VH: EVQLVESGGGLVQPGGSLRLSCAASGFNIKDTYIHWVRQAPGKGLEWVARIYPTNGYTRYADSVKGRFTISADTSKNTAYLQMNSLRAEDTAVYYCARWYYYGGYYFDYWGQGTLVTVSS
VL: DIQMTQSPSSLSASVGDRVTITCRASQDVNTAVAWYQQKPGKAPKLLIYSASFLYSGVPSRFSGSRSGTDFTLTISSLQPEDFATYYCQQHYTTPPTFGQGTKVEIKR
B22: Trastuzumab HCDR3 variant ARYAHYGPYYFDF (Fab, V domains shown)
VH: EVQLVESGGGLVQPGGSLRLSCAASGFNIKDTYIHWVRQAPGKGLEWVARIYPTNGYTRYADSVKGRFTISADTSKNTAYLQMNSLRAEDTAVYYCARYAHYGPYYFDFWGQGTLVTVSS
VL: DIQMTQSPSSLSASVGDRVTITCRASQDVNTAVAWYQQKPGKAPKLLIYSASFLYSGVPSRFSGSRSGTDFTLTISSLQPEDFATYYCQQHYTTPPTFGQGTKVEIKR
B23: Trastuzumab HCDR3 variant ARWLGSGYYWFDY (Fab, V domains shown)
VH: EVQLVESGGGLVQPGGSLRLSCAASGFNIKDTYIHWVRQAPGKGLEWVARIYPTNGYTRYADSVKGRFTISADTSKNTAYLQMNSLRAEDTAVYYCARWLGSGYYWFDYWGQGTLVTVSS
VL: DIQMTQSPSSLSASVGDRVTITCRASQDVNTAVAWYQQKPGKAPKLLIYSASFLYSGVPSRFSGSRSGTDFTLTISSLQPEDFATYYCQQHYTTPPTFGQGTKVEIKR
B24: Trastuzumab HCDR3 variant ARYEAYGLYPFGY (Fab, V domains shown)
VH: EVQLVESGGGLVQPGGSLRLSCAASGFNIKDTYIHWVRQAPGKGLEWVARIYPTNGYTRYADSVKGRFTISADTSKNTAYLQMNSLRAEDTAVYYCARYEAYGLYPFGYWGQGTLVTVSS
VL: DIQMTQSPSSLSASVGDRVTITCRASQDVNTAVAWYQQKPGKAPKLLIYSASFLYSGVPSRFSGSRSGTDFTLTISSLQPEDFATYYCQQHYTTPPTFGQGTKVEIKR
B25: Trastuzumab HCDR3 variant ARWLAGYNYYFDV (Fab, V domains shown)
VH: EVQLVESGGGLVQPGGSLRLSCAASGFNIKDTYIHWVRQAPGKGLEWVARIYPTNGYTRYADSVKGRFTISADTSKNTAYLQMNSLRAEDTAVYYCARWLAGYNYYFDVWGQGTLVTVSS
VL: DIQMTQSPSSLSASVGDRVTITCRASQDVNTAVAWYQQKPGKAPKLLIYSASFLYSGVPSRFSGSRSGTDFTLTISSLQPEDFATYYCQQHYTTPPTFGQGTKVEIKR
B26: Trastuzumab HCDR3 variant ARWTERGFYSFDI (Fab, V domains shown)
VH: EVQLVESGGGLVQPGGSLRLSCAASGFNIKDTYIHWVRQAPGKGLEWVARIYPTNGYTRYADSVKGRFTISADTSKNTAYLQMNSLRAEDTAVYYCARWTERGFYSFDIWGQGTLVTVSS
VL: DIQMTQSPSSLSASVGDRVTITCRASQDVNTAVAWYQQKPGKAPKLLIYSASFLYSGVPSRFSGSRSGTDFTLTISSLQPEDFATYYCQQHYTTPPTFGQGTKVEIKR
B27: Trastuzumab HCDR3 variant ARWRGDGGYYFDY (Fab, V domains shown)
VH: EVQLVESGGGLVQPGGSLRLSCAASGFNIKDTYIHWVRQAPGKGLEWVARIYPTNGYTRYADSVKGRFTISADTSKNTAYLQMNSLRAEDTAVYYCARWRGDGGYYFDYWGQGTLVTVSS
VL: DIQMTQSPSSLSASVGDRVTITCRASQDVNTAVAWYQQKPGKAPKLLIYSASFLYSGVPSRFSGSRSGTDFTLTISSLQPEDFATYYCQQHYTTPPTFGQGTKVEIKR
B28: Trastuzumab HCDR3 variant ARWWGGGAYYFDY (Fab, V domains shown)
VH: EVQLVESGGGLVQPGGSLRLSCAASGFNIKDTYIHWVRQAPGKGLEWVARIYPTNGYTRYADSVKGRFTISADTSKNTAYLQMNSLRAEDTAVYYCARWWGGGAYYFDYWGQGTLVTVSS
VL: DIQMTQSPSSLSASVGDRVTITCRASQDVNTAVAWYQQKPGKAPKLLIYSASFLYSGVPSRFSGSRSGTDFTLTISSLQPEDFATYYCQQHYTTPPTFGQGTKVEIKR
B29: Trastuzumab HCDR3 variant ARWYYGYYYYFDV (Fab, V domains shown)
VH: EVQLVESGGGLVQPGGSLRLSCAASGFNIKDTYIHWVRQAPGKGLEWVARIYPTNGYTRYADSVKGRFTISADTSKNTAYLQMNSLRAEDTAVYYCARWYYGYYYYFDVWGQGTLVTVSS
VL: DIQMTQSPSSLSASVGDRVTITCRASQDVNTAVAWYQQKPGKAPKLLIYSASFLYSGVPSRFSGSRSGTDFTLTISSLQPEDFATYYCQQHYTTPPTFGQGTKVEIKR

“And” between values parts separate entries of the source, which are not always exact repeats. Equal values may be shown once.

This test has as its target T1, HER2 (human epidermal growth factor receptor 2) (human, UniProt P04626 23-629).
T1 construct: also called Antigen: HER2
Kind of test: SPR. For orientation: Surface plasmon resonance follows binding to a sensor surface in real time, without labels.
For the molecule B1, binding was characterised by a dissociation constant (Kd) of 19.4 nM and the “log(KD (M))” value was -7.71.

On to B2, for which the Kd (usually a measure of binding affinity in units of concentration) was 7.31 nM and the “log(KD (M))” value is -8.14.

As for B3, the Kd was determined as 13.4 nM and the “log(KD (M))” value was -7.87.

For B4, the Kd was 6.93 nM and the “log(KD (M))” value was -8.16.

In the case of B5, binding was characterised by a dissociation constant (Kd) of 15.7 nM and the “log(KD (M))” value is -7.8.

As to B6, the affinity, expressed as Kd, was 11.8 nM and the “log(KD (M))” value is -7.93.

In the case of B7, binding was characterised by a dissociation constant (Kd) of 11 nM and the “log(KD (M))” value was -7.96.

Regarding B8, the Kd was determined as 7.43 nM and the “log(KD (M))” value was -8.13.

As to B9, binding was characterised by a dissociation constant (Kd) of 7.11 nM and the “log(KD (M))” value is -8.15.

Take B10: the Kd turned out to be 2.64 nM and the “log(KD (M))” value was -8.58.

Take B11: binding was put at a Kd of 24.2 nM and the “log(KD (M))” value is -7.62.

As for B12, the affinity, expressed as Kd, was 4.83 nM and the “log(KD (M))” value is -8.32.

With B13, the Kd is 21.1 nM and the “log(KD (M))” value was -7.68.

As to B14, the dissociation constant Kd is 26.7 nM and the “log(KD (M))” value is -7.57.

For the molecule B15, binding was characterised by a dissociation constant (Kd) of 19.1 nM and the “log(KD (M))” value was -7.72.

Turning to B16, the Kd is 15.9 nM and 15.8 nM; the “log(KD (M))” value is -7.8.

B17: the Kd came out at 15.7 nM and the “log(KD (M))” value is -7.8.

In the case of B18, binding was put at a Kd of 19.6 nM and the “log(KD (M))” value was -7.71.

With B19, binding was put at a Kd of 3.42 nM and the “log(KD (M))” value was -8.47.

Take B20: the affinity, expressed as Kd, was 12.5 nM and the “log(KD (M))” value is -7.9.

Take B21: the Kd was 8.29 nM and the “log(KD (M))” value is -8.08.

For B22, the Kd came to 19.8 nM and the “log(KD (M))” value was -7.7.

Consider B23, for which the Kd was found to be 10.9 nM and the “log(KD (M))” value was -7.96.

For the molecule B24, the dissociation constant Kd worked out at 3.39 nM and the “log(KD (M))” value was -8.47.

For the molecule B25, binding was put at a Kd of 15.7 nM and the “log(KD (M))” value was -7.8.

In the case of B26, binding was characterised by a dissociation constant (Kd) of 9.28 nM and the “log(KD (M))” value is -8.03.

As for B27, binding was characterised by a dissociation constant (Kd) of 13.1 nM and the “log(KD (M))” value was -7.88.

As for B28, the Kd is 14.9 nM and the “log(KD (M))” value is -7.83.

In the case of B29, the Kd was determined as 7.04 nM and the “log(KD (M))” value is -8.15.
